B1: LINE1-full (parent)
chain: UACGUAGGUGGUUUUCCCCUGAUAGUGCUAAGGGGGCCUGGAAGUUUGGACUGGGCAGAGCUCAACACAGCGUGGCAAAGUGGCUGUGGCUAGACUGCCUCUCUGGAUUCCUCGUCACUCAGCAGGGCAUCUCUGAGAGAAAUGCC

Variants of: B1
Assay: self-cleavage, relative activity (ratio to wild type); higher = more cleavage; in vitro, sequencing; the parent is a self-cleaving ribozyme
UACGUAGGUGGUUUUCCCCUGAUAGUGCUAAGGGGGCCUGGAAGUUUGGACUGGGCAGAGCUCAACACAGCUUGGCAAAGUGGCUGUGGCUAGACUGCCUCUCUGGAUUCCUCGUCACUCAGCAGGGCAUCCCUGAGAGAAAUGCC showed a self-cleavage of 1.11.
UACGUAGGUGGUUUUCCCCUGAUAGUGCUAAGGGGGCCUGGAAGUUUGGACUGGGCAGAGCUCAACACAGCGUGGCAAUGUGGCUGUGGCUAGACUGCCUCUCUGGAUUCCUCGUCACUCAGCAGGGCAUCUCUGAGGGAAAUGCC showed a self-cleavage of 1.76.
With UACGUAGGUGGUUUUCCCCUGAUAGUGCUAAGGGUGCCUGGAAGUUUGGACUGGGCAGAGCUCAUCACAGCGUGGCAAAGUGGCUGUGGCUAGACUGCCUCUCUGGAUUCCUCGUCACUCAGCAGGGCAUCUCUGAGAGAAAUGCC the self-cleavage was 0.12.
UACGUAGGUGGUUUUCCCCUGAUAGUGCUAAGGGGGCCUGGAAGUUUGGACUGGGCAGAGCUCAACACAGCGUGGCCGAGUGGCUGUGGCUAGACUGCCUCUCUGGAUUCCUCGUCACUCAGCAGGGCAUCUCUGAGAGAAAUGCC gave a self-cleavage of 1.63.
UACGUAGGUGGUUUUCCCCUGAUAGUGCUAAGGGGGCCUGGAAGUUUGGACUGGGCAGAGCUCAACACAGCGUGGCAAAGUGGCUGUGGCUAGACUGCCUCUCUGGAUUUCUCGUCACUCAGCAGGGCAUCCCUGAGAGAAAUGCC gave a self-cleavage of 1.45.
In the case of UACGUAGGUGGUUUUCCCCUGAUAGUGCUAAGGGGGCCUGGAAGUUCGGACUGGGCAGAGCUCAACACAGCGUGGCAAAGUGGCUGUGGCUAGUCUGCCUCUCUGGAUUCCUCGUCACUCAGCAGGGCAUCUCUGAGAGAAAUGCC, the self-cleavage is reported as 0.52.
UACGUAGGUGGUUUCCCCCUGAUAGUGCUAAGGGGGCCUGGAAGUUUGGACUGGGCAGAGCUCAACACAGCGUGGCAAUGUGGCUGUGGCUAGACUGCCUCUCUGGAUUCCUCGUCACUCAGCAGGGCAUCUCUGAGAGAAAUGCC gave a self-cleavage of 1.88.
For UACGUAGGUGGUUUUCCCCUGAUAGUGCCAAGGGGGCCUGGAAGUUUGGACUGGGCAGAGCUCAACACUGCGUGGCAAAGUGGCUGUGGCUAGACUGCCUCUCUGGAUUCCUCGUCACUCAGCAGGGCAUCUCUGAGAGAAAUGCC, the self-cleavage was 0.11.
For UACGUAGGUGGUUUUCCCCUGAUAGUGCUAAGGGGGCUUGGAAGUUUGGACUGGGCAGAGCUCAACACAGCGUGGCAAAGUGGCUGUGGCUAGACUGCCUCUCUGGAUUCCUCGUCACUCGGCAGGGCAUCUCUGAGAGAAAUGCC, the self-cleavage was 1.72.
Work on UACGUAGGUGGUUUUCCCCUGAUAGUGCUAAGGGGGCCUGGAAGUUUGGACUGGGCAGAGCUCAACACAGCGUGGCAAAGUGGCUGUGGCUUGACUGCCUCCCUGGAUUCCUCGUCACUCAGCAGGGCAUCUCUGAGAGAAAUGCC yielded a self-cleavage of 0.3.
In the case of UACGUAGGUGGUUCUCCCCUGAUAGUGCUAAGGGGGCCUGGAAGUUUGGACUGGGCAGAGCUCAACACAGCGUGGCAAAGUGGCUGUGGCUAGACUGCCUCUCUGGAUUCCUCGUCACUCAGCAGGGCUUCUCUGAGAGAAAUGCC, the self-cleavage is reported as 1.35.
UACGUAGGUGGUUUUCCCCUGAUGGUGCUGAGGGGGCCUGGAAGUUUGGACUGGGCAGAGCUCAACACAGCGUGGCAAAGUGGCUGUGGCUAGACUGCCUCUCUGGAUUCCUCGUCACUCAGCAGGGCAUCUCUGAGAGAAAUGCC gave a self-cleavage of 0.42.
UACGUAGGUGGUUUUCCCCUGAUAGUGCUAAGGGGGCCUGGAAGUUUGGACUGGGCAGAGCUCAACACAGCGUGGCAAAGUGGCUGUGGCUGGACUGCCUCUCUGGAUUCCUCGUCACUCAGCAGGGCAUCUCUGUGAGAAAUGCC gave a self-cleavage of 0.05.
UACGUAGGUGGUUUUCCCCUGAUAGUGCUAAGGGGGCCUGGAAGUUUGGACUGGGCAGAGCUCAACACAGCGUGGCAAAGUGGCUGUGGCUAGACUGCCCCUCUGGAUUCCUCGUCACUCAGCAGGGCAUCUCUGAGUGAAAUGCC showed a self-cleavage of 1.51.
UACGUAGGUGGUUUUCCCCUGAUAGUGCUAAGGGGGCCUGGAAGUUUGAACUGGGCAGAGCUCAACACAGCGUGGCAAGGUGGCUGUGGCUAGACUGCCUCUCUGGAUUCCUCGUCACUCAGCAGGGCAUCUCUGAGAGAAAUGCC gave a self-cleavage of 0.97.
Variant UACGUAGGUGGUUUUCCCCUGAUAGUGCUAGGGGGGCCUGGAAGUUUGGACUGGGCAGGGCUCAACACAGCGUGGCAAAGUGGCUGUGGCUAGACUGCCUCUCUGGAUUCCUCGUCACUCAGCAGGGCAUCUCUGAGAGAAAUGCC has a self-cleavage of 0.16.
UACGUAGGUGGUUCUCCCCUGAUAGUGCUAAGGGGGCCUGGAAGUUUGGACUGGGCAGAGCUCAACACAGCGUGGCAAAGUGGCUUUGGCUAGACUGCCUCUCUGGAUUCCUCGUCACUCAGCAGGGCAUCUCUGAGAGAAAUGCC gave a self-cleavage of 0.08.
UACGUAGGUGGUUUUCCCCUGAUAGUGCUAAGGGGGCCUGGAAGUUUGGACUGGGCAGAGCUCAACACAGCGUGGCAAAGUGGCUGUGGCUAGACUGCCUCUCUGGAUUCCUCGUCACUCAGCAGGGCAUCUCUGAGAGGAUUGCC gave a self-cleavage of 0.84.
With UACGUAGGUGGUUUUCCCCUGAUAGUGCUAAGGGGGCCUGGAAGUUUGGACUGGGCAGAGCUCAACGCAGCGUGGCAAAGUGGCUGUGGCUAGACUGCCUCUCUGGGUUCCUCGUCACUCAGCAGGGCAUCUCUGAGAGAAAUGCC the self-cleavage was 0.25.
For UACGUAGGUGGUUUUCCCCUGAUAGUGCUAAGGGGGCCUGGAAGUUUAGACUGGGCAGAGCUCAACACAGCGUGGCAAAGUGGCUGUGGCUAGACUGCCUCUCUGGAUUCCUCGUCACUCAGCAGGGCAUCUCUGAGAGGAAUGCC, the self-cleavage was 1.02.
Work on UACGUAGGUGGUUUUCCCCUGAUAGUGCUAAGGGGGCCUGGAAGUUUGGACUGGGCAGAGCUCAACAUAGCGUGGCAAAGUGGCUGUGGCUAGACUGCCUCUCUGGAUUCCUCGUCACUCAGCAGGGCAUCUCUGAGAGUAAUGCC yielded a self-cleavage of 0.22.
UACGUAGGUGGUUUUCCCCUGAUAGUGCUAAGGGGGCCUGGAAGUUUGGACAGGGCAGAGCUCAACACAGCGUGGCAAAGUGGCUGUGGCUAGACUGCCUCUCUGGAUUCCUCGUCACUCAGCUGGGCAUCUCUGAGAGAAAUGCC showed a self-cleavage of 1.15.
Variant UACGUAGGUGGUUUUCCCCUGAUAGUGCUAAGGGGGCCUGGAAGUUUGGACUGGGCAGAGCUCAACACAGCGUGGCAAAGUGGCUGUGGCUGGACUGCCUCUCUGGAUUCCUCGUCGCUCAGCAGGGCAUCUCUGAGAGAAAUGCC has a self-cleavage of 0.
Work on UACGUAGGUGGUUUUCCCCUGAUAGUGCUAAGGGGGCCUGGCAGUUUGGACUGGGCAGAGCUCAACGCAGCGUGGCAAAGUGGCUGUGGCUAGACUGCCUCUCUGGAUUCCUCGUCACUCAGCAGGGCAUCUCUGAGAGAAAUGCC yielded a self-cleavage of 0.52.
UACGUAGGUGGUUUUCCCCUGAUAGUGCUAAGGGGGCCUGGAAGUUUGGACUGGGCAGAGCUCAACACAGCGUGGCAAAGUGGCUGUGGCUAGACUGCCUCUCUGGAUUCCUCGUCACUCAGCAUGGCAUCUCGGAGAGAAAUGCC gave a self-cleavage of 1.26.
For UACGUAGGUGGUUUUCCCCUGAUAGUGCUAAGGGGGCCUGGAAGUUUGGACUGGGCAGAGCUCAACACAGCGUGGCAAAGUGGCUGUGGCUAGACUACCUCUCUGGAUUCCUCGUCACUCAGCAGGGCAUCUCGGAGAGAAAUGCC, the self-cleavage was 0.06.
Variant UACGUAGGUGGUUUUCCCCUGAUAGUGCUAAGGGGGCCUGGAAGUUUGGACUGGGCAGAGCUCAACACUGCGUGGCAAAGUGGCUGAGGCUAGACUGCCUCUCUGGAUUCCUCGUCACUCAGCAGGGCAUCUCUGAGAGAAAUGCC has a self-cleavage of 0.04.
Work on UACGUGGGUGGUUUUCCCCUGAUAGUGCUAAGGGGGCCUGGAAGUUUGGACUGGGCAGAGCUCAACACAGCGUGGCAAAGUGGCUGUGGCUAGACUGCCUCUCUGGAUUCCUCGUCACUCAGCAGGGCAUCUCUGAGUGAAAUGCC yielded a self-cleavage of 0.67.
With UACGUAGGUGGUUUUCCCCUGAUAGAGCUAAGGGGGCCUGGAAGUUUGGACUGGGCAGAGCUCAACACAGCGUGGCAAAGUGGCUGUGGCUAGACUGCCUCUCUGGAUUCCUCGUCACUCAGCAGGGCAUCUCUGAGAGAAACGCC the self-cleavage was 0.86.
For CACGUAGGUGGUUUUCCCCUGAUAGUGCUAAGGGGGCCUGGAAGUUUGGACUGGGCAGAGCUCUACACAGCGUGGCAAAGUGGCUGUGGCUAGACUGCCUCUCUGGAUUCCUCGUCACUCAGCAGGGCAUCUCUGAGAGAAAUGCC, the self-cleavage was 0.29.
In the case of UACGUAGGUGGUUUUCCCCUGAUAGUGCUACGGGGGCCUGGAAGUUUGGACUGGGCAGAGCUCAACACAGCGUGGCAAAGUGGCUGUGGCUAGACUGCCUCUCAGGAUUCCUCGUCACUCAGCAGGGCAUCUCUGAGAGAAAUGCC, the self-cleavage is reported as 2.67.
For UACGUAGGUGGUUUUCCCCUGAUAGUGCUAAGGGGGUCUAGAAGUUUGGACUGGGCAGAGCUCAACACAGCGUGGCAAAGUGGCUGUGGCUAGACUGCCUCUCUGGAUUCCUCGUCACUCAGCAGGGCAUCUCUGAGAGAAAUGCC, the self-cleavage was 0.68.
For UACGUAGGUGGUUUUCCCCUGAUAGUGCUAAGGGGGCCUGGAAGUUUGGACUGGGCAGAGCUUAACACAGCGUGGCAAAGUGGCUGUGGCUAGACUGCCUCUCUGGAUUCCUCGUCACUCAGCGGGGCAUCUCUGAGAGAAAUGCC, the self-cleavage was 0.09.
For UCCGUAGGUGGUUUUCCCCUGAUAGUGCUAAGGGGGCCUGGAAGUUUGGACUGGGCAGAGCCCAACACAGCGUGGCAAAGUGGCUGUGGCUAGACUGCCUCUCUGGAUUCCUCGUCACUCAGCAGGGCAUCUCUGAGAGAAAUGCC, the self-cleavage was 0.11.
For UACGUAGGUGGUUUUCCCCUGUUAGUGCUAAGGGGGCCUGGAAGUUUGGACUGGGCAGAGCUCAACACAGCGUGGCAGAGUGGCUGUGGCUAGACUGCCUCUCUGGAUUCCUCGUCACUCAGCAGGGCAUCUCUGAGAGAAAUGCC, the self-cleavage was 1.54.
Variant UACGUAGGUGGUUUUCCCCUGAUAGUGCUAAGGGGGCCUGGAAGUUUGGACUGGGCAGAGCUCAACACAGCGUGGCAAAGUGGCUAUGGCUAGACCGCCUCUCUGGAUUCCUCGUCACUCAGCAGGGCAUCUCUGAGAGAAAUGCC has a self-cleavage of 0.05.
In the case of UACGUAGGUGGUUUUCCCCUGACAGUGCUAAGGGGGCCUGGAAGUUUGGACUGGGCAGAGCUCAACACAGCGUGGCAAAGUGGCUGUGGCUAGACUGCCUCCCUGGAUUCCUCGUCACUCAGCAGGGCAUCUCUGAGAGAAAUGCC, the self-cleavage is reported as 1.33.
For UACGUAGGUGGUUUUCCCCUGAUAGUGCUAAGGGGGCCUGGAAGUUAGGACUGGGCAGAGCUCAACACAGCGUGGCAAAGUGGCUGUGGCUAGACUGCCUCUCUGGAUUCCUCGUCACUCAGCAGGGCAUCUCUGAGAGAAAGGCC, the self-cleavage was 1.2.
In the case of UACGUAGGUGGUUUUCCCCUGAUAGUGCUAAGGGGGCCUGGAAGUUUGGACUGGGCAGAGCUCAACACGGCGUGGCAUAGUGGCUGUGGCUAGACUGCCUCUCUGGAUUCCUCGUCACUCAGCAGGGCAUCUCUGAGAGAAAUGCC, the self-cleavage is reported as 0.63.
